# Results from PMC4452428 (Biotechnology and bioengineering, 2015).
# B1: P99 beta-lactamase (protein, UniProt P05364 21-381, looked up)
# Beta-lactamase: TPVSEKQLAEVVANTITPLMKAQSVPGMAVAVIYQGKPHYYTFGKADIAANKPVTPQTLFELGSISKTFTGVLGGDAIARGEISLDDAVTRYWPQLTGKQWQGIRMLDLATYTAGGLPLQVPDEVTDNASLLRFYQNWQPQWKPGTTRLYANASIGLFGALAVKPSGMPYEQAMTTRVLKPLKLDHTWINVPKAEEAHYAWGYRDGKAVRVSPGMLDAQAYGVKTNVQDMANWVMANMAPENVADASLKQGIALAQSRYWRIGSMYQGLGWEMLNWPVEANTVVEGSDSKVALAPLPVAEVNPPAPPVKASWVHKTGSTGGFGSYVAFIPEKQIGIVMLANTSYPNPARVEAAYHILEALQ
# What was measured:
# [1] = Michaelis-Menten kinetics, colorimetric nitrocefin assay; type: biochemical; settings: nitrocefin 10 μM to 500 μM, 96-well, triplicate
# [2] = test system: MHC II alleles DRB1*0101, 0401, 0701, and 1501; settings: IC50≥100 μM; average per protein for designs
molecule,measurement,setting,value
B1,Km,"[1]; non-linear regression, biological duplicate",80 ± 10 µM
same,kcat,"[1]; non-linear regression, enzymes purified and assayed in biological duplicate",360 ± 20 s⁻¹
same,kcat/Km,[1]; biological duplicate,4.6 ± 0.7 s^−1μM^−1
same,non-binding peptides out of 36,[2],13/36
